These results are taken from patent publication US20080138339A1 (DONGGNAN HAOFA BIOTECHNOLOGY DEVELOPMENTAL, published 2008).

In this assay the target is T1, OC183B2 (antigens associated with ovarian carcinoma) (human).
T1 construct: It is treated here as a protein antigen; also called HRP-OC183B2
As to the kind of experiment: direct ELISA; plate coated with bispecific antibody, HRP-OC183B2 added, read at 492 nm. Here is the method: The antigen-binding activity of anti-ovarian carcinoma scFv in bispecific antibody was assayed by direct ELISA. ELISA plate was coated with bispecific antibody at 4° C. overnight. Wells coated with anti-ovarian monoclonal antibody were set as positive control. Plate was washed 3 times with PBST (PBS-0.05% Tween 20) for 5 min. HRP-OC183B2 diluted in 3% goat serum was added and incubate at 37° C. for 1 h. After washing plate 3 times with PBST, the substrate of HRP was added and incubated for 20 min at room temperature in the dark. 2M H2SO4 was added to stop the reaction. All the values of OD492 of bispecific antibody were 2.5 times higher than those of negative control and changed with gradient among the different dilution of bispecific antibody.

B1: anti-human ovarian carcinoma x anti-human CD3 bispecific antibody (bispecific antibody, not shown: a dimerising Fc or GST)
chain: EVQLQESGPEVKKPGETVRISCKASGYTFTTAGMQWVQKMPGKGLKWLGWINTNSEVPKYAEDFRGRFAFSLETSASTAYLQISNLKNEDTATFFCARSFTWGTMDYWGQGTTVTVSSGGGGSGGGGSGGGGSDVVMTQTPLSLPVSLGDQASISCRSSQTLVHSIGNTYLHWYLQKPGQSPKLLIYKVSNRFSGVPDRFSGSGSGTDFTLKISRVEAEDLGVYFCSQSTHVPYTFGGGTKLELKEIVLTQSPATLSLSPGERATLSCSASSSVSYMNWYQQKPGQAPRRWIYDTSKLASGIPARFSGSGSGTDFTLTISSLEPEDFATYYCQQWSSNPFTFGGGTKVEIKRGGGGSGGGGSGGGGSQVQLVQSGAEVRKPGASVRVSCKASGYTFTRYTMHWVRQAPGHGLEWIGYINPSRGYTNYNQKFKDRVTMTTDKSFSTAIMDLRSLRSDDSAVYYCARYYDDHYCLDYWGQGTTVTVSSHHHHHH
notes: Single polypeptide expressed from pAMAB in E. coli G1724, about 52 kDa; Order: anti-ovarian scFv, interlinker, anti-CD3 reshaped scFv, 6 His; also called BsAb; ScBsAb
In the case of B1, the “OD492 relative to negative control” value amounted to 2.5 times.
